Test results taken from publication PMC6978347.

Biological target: polymerization-deficient p62^1–102 (D69A/D73A) (human) (UniProt Q13501)
Test: ITC; VP-ITC, 25 °C, 10 mM HEPES pH 7.5, 150 mM NaCl; p62 D69A/D73A in the cell (5–20 μM), partner PB1 domain in the syringe (25–100 μM); one-site model; mean of three measurements

B1: MEKK3^43–127 (MEKK3–PB1) (domain or fragment)
chain: SDVRIKFEHNGERRIIAFSRPVKYEDVEHKVTTVFGQPLDLHYMNNELSILLKNQDDLDKAIDILDRSSSMKSLRILLLSQDRNH
- Kd: 26.8 nM
